Reference: US20200262877A1, “ION CHANNEL-BINDING PEPTIDES AND METHODS OF USE THEREOF” (priority 2017, published 2020)

Columns and labels:
Cav2.2 = target: T1, Cav2.2 (Homo sapiens, UniProt Q00975); assay: cell-based; details: 100% = no change, <100% = inhibition
T1 construct: host or cells: HEK293 or CHO
Method in brief: (§1)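 Transfected HEK293 or CHO cells were exposed for at least 5 min to peptides at 200 nM and 20 μM final, tested in duplicate, in HEPES-buffered physiological saline. Activation was taken as peptide-plus-agonist current over control current ×100, and inhibition as 1 minus that ratio ×100. Each channel's control was its own reference compound.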

Kv2.1 = target: T2, Kv2.1 (Homo sapiens, UniProt Q14721); assay: cell-based; details: 100% = no change, <100% = inhibition
T2 construct: host or cells: HEK293 or CHO
Method in brief: as §1

Cav2.1 = target: T3, Cav2.1 (Homo sapiens, UniProt O00555); assay: cell-based; details: 100% = no change, <100% = inhibition
T3 construct: host or cells: HEK293 or CHO
Method in brief: as §1

α3β4 = target: T4, α3β4 (Homo sapiens, UniProt P30926+P32297); assay: Ion channel panel (IonWorks Barracuda): α3β4; format: cell-based; details: 100% = no change, <100% = inhibition
T4 construct: host or cells: HEK293 or CHO
Method in brief: as §1

α4β2 = target: T5, α4β2 (Homo sapiens, UniProt P17787+P43681); assay: Ion channel panel (IonWorks Barracuda): α4β2; format: cell-based; details: 100% = no change, <100% = inhibition
T5 construct: host or cells: HEK293 or CHO
Method in brief: as §1

NR2A = target: T6, NR2A (Homo sapiens, UniProt Q12879); assay: Ion channel panel (IonWorks Barracuda): NR2A; format: cell-based; details: 100% = no change, <100% = inhibition
T6 construct: host or cells: HEK293 or CHO
Method in brief: as §1

NR2B = target: T7, NR2B (Homo sapiens, UniProt Q13224); assay: Ion channel panel (IonWorks Barracuda): NR2B; format: cell-based; details: 100% = no change, <100% = inhibition
T7 construct: host or cells: HEK293 or CHO
Method in brief: as §1

Nav1.5 = Nav1.5 (Homo sapiens, UniProt Q14524); assay: in vitro; details: 100% = no change; for Activity of Nav1.5 with peptide, expressed as a percentage of the reference compound: peptide at 0.2 μM; for Activity of Nav1.5 with peptide (percentage of the reference compound): peptide at 20 μM
Sequence of Nav1.5 (Q14524 whole entry): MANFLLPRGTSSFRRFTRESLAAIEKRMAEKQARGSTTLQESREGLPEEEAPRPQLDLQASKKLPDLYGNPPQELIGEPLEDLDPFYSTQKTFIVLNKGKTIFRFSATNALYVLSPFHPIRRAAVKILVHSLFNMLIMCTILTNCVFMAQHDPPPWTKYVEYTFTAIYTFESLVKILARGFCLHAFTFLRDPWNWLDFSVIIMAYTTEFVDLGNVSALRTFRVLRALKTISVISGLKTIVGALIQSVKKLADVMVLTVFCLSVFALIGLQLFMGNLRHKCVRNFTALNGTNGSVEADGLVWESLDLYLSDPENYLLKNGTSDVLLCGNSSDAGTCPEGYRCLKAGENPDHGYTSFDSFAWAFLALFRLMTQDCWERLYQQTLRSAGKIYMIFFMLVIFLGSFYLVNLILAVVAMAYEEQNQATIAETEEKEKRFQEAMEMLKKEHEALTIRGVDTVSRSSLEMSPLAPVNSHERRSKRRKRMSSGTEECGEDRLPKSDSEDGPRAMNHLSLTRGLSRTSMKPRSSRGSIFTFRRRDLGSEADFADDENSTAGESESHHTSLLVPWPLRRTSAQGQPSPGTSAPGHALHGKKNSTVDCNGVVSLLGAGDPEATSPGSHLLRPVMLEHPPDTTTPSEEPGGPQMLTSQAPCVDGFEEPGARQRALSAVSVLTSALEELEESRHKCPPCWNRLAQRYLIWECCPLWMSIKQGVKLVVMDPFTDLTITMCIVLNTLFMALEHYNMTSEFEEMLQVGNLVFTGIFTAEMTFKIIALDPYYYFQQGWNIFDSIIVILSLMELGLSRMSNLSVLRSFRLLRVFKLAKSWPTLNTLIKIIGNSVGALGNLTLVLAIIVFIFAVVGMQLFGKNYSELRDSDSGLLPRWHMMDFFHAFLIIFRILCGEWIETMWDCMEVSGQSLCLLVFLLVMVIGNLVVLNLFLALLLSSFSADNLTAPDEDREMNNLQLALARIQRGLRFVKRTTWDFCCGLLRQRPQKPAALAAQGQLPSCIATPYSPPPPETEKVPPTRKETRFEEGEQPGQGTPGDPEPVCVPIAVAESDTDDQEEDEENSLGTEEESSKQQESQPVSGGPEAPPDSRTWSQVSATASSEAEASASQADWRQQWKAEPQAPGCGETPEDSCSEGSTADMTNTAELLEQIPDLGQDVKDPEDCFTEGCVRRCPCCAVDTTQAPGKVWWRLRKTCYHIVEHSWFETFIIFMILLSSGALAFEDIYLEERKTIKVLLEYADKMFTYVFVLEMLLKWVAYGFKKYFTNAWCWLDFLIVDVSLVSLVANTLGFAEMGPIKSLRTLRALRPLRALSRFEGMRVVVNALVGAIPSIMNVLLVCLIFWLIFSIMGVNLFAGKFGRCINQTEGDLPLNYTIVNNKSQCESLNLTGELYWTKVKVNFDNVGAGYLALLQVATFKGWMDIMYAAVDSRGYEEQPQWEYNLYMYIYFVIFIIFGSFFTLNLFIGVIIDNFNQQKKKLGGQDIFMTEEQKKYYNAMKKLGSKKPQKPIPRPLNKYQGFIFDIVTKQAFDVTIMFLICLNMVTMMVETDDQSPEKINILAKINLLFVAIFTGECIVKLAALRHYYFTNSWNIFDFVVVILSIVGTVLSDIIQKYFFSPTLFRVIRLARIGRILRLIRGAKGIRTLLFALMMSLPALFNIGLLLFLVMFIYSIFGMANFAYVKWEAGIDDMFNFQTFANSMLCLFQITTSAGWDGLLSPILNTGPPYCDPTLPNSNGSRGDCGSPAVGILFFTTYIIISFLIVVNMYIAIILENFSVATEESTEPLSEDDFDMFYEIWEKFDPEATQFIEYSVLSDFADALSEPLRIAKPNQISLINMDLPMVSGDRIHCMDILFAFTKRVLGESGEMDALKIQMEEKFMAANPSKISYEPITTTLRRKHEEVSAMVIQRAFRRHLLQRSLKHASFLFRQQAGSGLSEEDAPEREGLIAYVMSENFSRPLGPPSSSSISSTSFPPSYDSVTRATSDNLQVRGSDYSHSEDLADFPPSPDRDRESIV
Method in brief: as §1

hERG = hERG (Homo sapiens, UniProt Q12809); assay: in vitro; details: 100% = no change, <100% = inhibition
Method in brief: as §1

Kv1.3 = target: T8, Kv1.3 (Homo sapiens, UniProt P22001); assay: cell-based; format: cell-based; details: 100% = no change, <100% = inhibition
T8 construct: host or cells: HEK293 or CHO
Method in brief: as §1

Kv1.1 = target: T9, Kv1.1 (Homo sapiens, UniProt Q09470); assay: cell-based; format: cell-based; details: 100% = no change, <100% = inhibition
T9 construct: host or cells: HEK293 or CHO
Method in brief: as §1

Kv1.2 = target: T10, Kv1.2 (Homo sapiens, UniProt P16389); assay: cell-based; format: cell-based; details: 100% = no change, <100% = inhibition
T10 construct: host or cells: HEK293 or CHO
T10 sequence (P16389 whole entry): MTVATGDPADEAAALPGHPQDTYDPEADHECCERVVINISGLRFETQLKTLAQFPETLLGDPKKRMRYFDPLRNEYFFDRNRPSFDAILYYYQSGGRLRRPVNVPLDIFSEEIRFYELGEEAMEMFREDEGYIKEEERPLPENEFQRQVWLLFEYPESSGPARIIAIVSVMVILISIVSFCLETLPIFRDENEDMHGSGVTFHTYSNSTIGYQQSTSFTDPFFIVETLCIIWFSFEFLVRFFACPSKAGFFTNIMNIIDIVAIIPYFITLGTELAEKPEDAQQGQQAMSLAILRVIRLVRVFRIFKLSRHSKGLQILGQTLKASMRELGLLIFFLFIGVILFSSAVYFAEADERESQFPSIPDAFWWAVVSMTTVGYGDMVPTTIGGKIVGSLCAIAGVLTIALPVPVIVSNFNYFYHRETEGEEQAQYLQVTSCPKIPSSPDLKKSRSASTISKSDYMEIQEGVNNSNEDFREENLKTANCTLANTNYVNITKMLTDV
Method in brief: as §1

Kir2.1 = target: T11, Kir2.1 (Homo sapiens, UniProt P63252); assay: Ion channel panel (IonWorks Barracuda): Kir2.1; format: cell-based; details: 100% = no change, <100% = inhibition
T11 construct: host or cells: HEK293 or CHO
T11 sequence (P63252 whole entry): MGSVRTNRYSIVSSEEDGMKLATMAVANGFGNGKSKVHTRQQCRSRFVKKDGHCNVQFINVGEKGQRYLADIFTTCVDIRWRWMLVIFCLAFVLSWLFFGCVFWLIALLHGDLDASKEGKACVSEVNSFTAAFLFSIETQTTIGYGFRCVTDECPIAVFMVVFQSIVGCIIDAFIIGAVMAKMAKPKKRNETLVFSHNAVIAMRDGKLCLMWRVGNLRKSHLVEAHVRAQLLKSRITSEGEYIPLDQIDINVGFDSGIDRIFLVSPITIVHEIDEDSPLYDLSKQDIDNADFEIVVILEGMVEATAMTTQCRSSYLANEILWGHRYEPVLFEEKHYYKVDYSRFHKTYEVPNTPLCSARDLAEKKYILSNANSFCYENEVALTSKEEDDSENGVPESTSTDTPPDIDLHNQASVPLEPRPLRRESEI
Method in brief: as §1

Nav1.7 = target: T12, Nav1.7 (Homo sapiens, UniProt Q15858); assay: cell-based; format: cell-based; details: 100% = no change; for Activity of Nav1.7 with peptide, expressed as a percentage of the reference compound: peptide at 0.2 μM; for Activity of Nav1.7 with peptide (percentage of the reference compound): peptide at 20 μM
T12 construct: host or cells: HEK293 or CHO
T12 sequence (Q15858 whole entry): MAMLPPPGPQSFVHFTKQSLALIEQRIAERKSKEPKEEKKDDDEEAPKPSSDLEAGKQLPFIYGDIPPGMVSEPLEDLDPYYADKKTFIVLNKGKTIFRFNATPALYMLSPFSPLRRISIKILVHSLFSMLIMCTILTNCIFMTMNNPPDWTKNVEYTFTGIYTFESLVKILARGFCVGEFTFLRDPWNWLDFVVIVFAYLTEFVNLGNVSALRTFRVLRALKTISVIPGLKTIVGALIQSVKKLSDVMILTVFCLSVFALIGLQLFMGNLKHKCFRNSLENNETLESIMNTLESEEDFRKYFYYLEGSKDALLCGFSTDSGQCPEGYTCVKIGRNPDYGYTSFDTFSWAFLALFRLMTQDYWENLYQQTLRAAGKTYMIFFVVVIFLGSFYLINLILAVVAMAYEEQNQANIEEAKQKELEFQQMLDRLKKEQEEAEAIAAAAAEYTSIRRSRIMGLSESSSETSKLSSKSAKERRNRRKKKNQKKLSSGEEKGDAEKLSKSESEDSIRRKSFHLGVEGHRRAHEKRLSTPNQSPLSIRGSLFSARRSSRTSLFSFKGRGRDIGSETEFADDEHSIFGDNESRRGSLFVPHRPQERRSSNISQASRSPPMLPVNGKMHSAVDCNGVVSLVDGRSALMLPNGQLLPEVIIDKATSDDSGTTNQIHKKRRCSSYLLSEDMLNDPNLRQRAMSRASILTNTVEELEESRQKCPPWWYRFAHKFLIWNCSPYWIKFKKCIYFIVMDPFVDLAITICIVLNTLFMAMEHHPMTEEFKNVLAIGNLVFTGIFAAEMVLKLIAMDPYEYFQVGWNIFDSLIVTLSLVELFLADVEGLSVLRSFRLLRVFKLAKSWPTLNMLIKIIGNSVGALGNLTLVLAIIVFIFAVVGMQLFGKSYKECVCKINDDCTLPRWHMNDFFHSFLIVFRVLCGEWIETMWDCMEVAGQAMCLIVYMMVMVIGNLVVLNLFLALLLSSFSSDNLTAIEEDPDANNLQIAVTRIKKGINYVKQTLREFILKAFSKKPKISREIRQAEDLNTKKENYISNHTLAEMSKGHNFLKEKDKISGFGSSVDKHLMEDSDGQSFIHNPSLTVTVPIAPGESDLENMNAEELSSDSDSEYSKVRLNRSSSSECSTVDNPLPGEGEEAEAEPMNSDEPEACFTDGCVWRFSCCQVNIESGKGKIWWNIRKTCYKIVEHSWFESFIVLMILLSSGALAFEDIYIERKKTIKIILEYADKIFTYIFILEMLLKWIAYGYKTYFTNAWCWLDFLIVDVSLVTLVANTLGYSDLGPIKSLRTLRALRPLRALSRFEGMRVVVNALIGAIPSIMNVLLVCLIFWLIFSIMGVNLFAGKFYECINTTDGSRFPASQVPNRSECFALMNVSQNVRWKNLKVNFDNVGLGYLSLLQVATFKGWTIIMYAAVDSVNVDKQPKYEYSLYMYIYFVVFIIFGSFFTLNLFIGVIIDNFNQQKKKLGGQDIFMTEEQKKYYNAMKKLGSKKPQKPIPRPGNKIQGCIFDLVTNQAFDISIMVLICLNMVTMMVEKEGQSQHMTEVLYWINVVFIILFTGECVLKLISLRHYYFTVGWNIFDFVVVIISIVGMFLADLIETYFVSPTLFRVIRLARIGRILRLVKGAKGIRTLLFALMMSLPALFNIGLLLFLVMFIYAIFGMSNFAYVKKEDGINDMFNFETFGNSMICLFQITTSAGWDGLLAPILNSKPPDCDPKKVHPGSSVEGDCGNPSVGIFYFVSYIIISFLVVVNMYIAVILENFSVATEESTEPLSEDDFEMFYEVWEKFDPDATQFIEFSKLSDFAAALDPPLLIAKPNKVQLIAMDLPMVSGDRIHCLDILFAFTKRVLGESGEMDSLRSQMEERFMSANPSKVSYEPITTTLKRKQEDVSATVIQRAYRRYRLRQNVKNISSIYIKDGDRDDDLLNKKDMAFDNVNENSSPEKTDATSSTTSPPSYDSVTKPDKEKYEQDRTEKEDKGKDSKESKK

5HT3a = target: T13, 5HT3a (Homo sapiens, UniProt P46098); assay: Ion channel panel (IonWorks Barracuda): 5HT3a; format: cell-based
T13 construct: host or cells: HEK293 or CHO
T13 sequence (P46098 whole entry, looked up): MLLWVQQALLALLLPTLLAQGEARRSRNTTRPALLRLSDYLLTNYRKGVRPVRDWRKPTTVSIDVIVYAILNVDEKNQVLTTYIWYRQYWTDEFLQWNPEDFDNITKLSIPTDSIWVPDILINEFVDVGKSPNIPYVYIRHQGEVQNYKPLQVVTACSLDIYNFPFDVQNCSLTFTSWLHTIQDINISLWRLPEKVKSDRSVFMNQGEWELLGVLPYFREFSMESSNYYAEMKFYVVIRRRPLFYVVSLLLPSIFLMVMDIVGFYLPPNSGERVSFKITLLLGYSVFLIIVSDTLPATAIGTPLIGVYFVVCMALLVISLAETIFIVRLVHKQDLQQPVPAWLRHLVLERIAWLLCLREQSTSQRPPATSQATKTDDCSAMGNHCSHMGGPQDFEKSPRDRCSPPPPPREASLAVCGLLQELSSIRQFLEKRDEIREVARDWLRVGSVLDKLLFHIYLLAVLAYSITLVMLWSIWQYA
Method in brief: as §1

TRPA1 = target: T14, TRPA1 (Homo sapiens, UniProt O75762); assay: Ion channel panel (IonWorks Barracuda): TRPA1; format: cell-based; details: 100% = no change, <100% = inhibition
T14 construct: host or cells: HEK293 or CHO
Method in brief: as §1

GABA = assay: Ion channel panel (IonWorks Barracuda): GABA; format: cell-based; details: 100% = no change, <100% = inhibition
Method in brief: as §1

TRPV1 = target: T15, TRPV1 (Homo sapiens, UniProt Q8NER1); assay: Ion channel panel (IonWorks Barracuda): TRPV1; format: cell-based; details: 100% = no change, <100% = inhibition
T15 construct: host or cells: HEK293 or CHO
Method in brief: as §1

[1] = first of two Nav1.5 columns (probably TP1)
[2] = second of two Nav1.5 columns (probably TP2)
[3] = first of two Nav1.7 columns (probably TP1)
[4] = second of two Nav1.7 columns (probably TP2)

Substance: 4 (GSSCAKPRENCNRMNILCCRGECVCPTFGDCFCYGD) [compound 4]
- Activity of Cav2.2 with peptide, expressed as a percentage of the reference compound (Cav2.2; peptide at 0.2 μM): 105%
- Activity of Cav2.2 with peptide (percentage of the reference compound) (Cav2.2; peptide at 20 μM): 101%
- Activity of Kv2.1 with peptide, expressed as a percentage of the reference compound (Kv2.1; peptide at 0.2 μM): 112%
- Activity of Kv2.1 with peptide (percentage of the reference compound) (Kv2.1; peptide at 20 μM): 102%
- Activity of Cav2.1 with peptide, expressed as a percentage of the reference compound (Cav2.1; peptide at 0.2 μM): 111%
- Activity of Cav2.1 with peptide (percentage of the reference compound) (Cav2.1; peptide at 20 μM): 130%
- Activity of a3b4 with peptide, expressed as a percentage of the reference compound (α3β4; peptide at 0.2 μM): 107%
- Activity of a3b4 with peptide (percentage of the reference compound) (α3β4; peptide at 20 μM): 97%
- Activity of a4b2 with peptide, expressed as a percentage of the reference compound (α4β2; peptide at 0.2 μM): 86%
- Activity of a4b2 with peptide (percentage of the reference compound) (α4β2; peptide at 20 μM): 81%
- Activity of NR2A with peptide, expressed as a percentage of the reference compound (NR2A; peptide at 0.2 μM): 106%
- Activity of NR2A with peptide (percentage of the reference compound) (NR2A; peptide at 20 μM): 90%
- Activity of NR2B with peptide, expressed as a percentage of the reference compound (NR2B; peptide at 0.2 μM): 117%
- Activity of NR2B with peptide (percentage of the reference compound) (NR2B; peptide at 20 μM): 93%
- Activity of Nav1.5 with peptide, expressed as a percentage of the reference compound (Nav1.5; [1]): 117%
- Activity of Nav1.5 with peptide, expressed as a percentage of the reference compound (Nav1.5; [2]): 118%
- Activity of Nav1.5 with peptide (percentage of the reference compound) (Nav1.5; [1]): 98%
- Activity of Nav1.5 with peptide (percentage of the reference compound) (Nav1.5; [2]): 101%
- Activity of hERG with peptide, expressed as a percentage of the reference compound (hERG; peptide at 0.2 μM): 110%
- Activity of hERG with peptide (percentage of the reference compound) (hERG; peptide at 20 μM): 80%
- Activity of Kv1.3 with peptide, expressed as a percentage of the reference compound (Kv1.3; peptide at 0.2 μM): 109%
- Activity of Kv1.3 with peptide (percentage of the reference compound) (Kv1.3; peptide at 20 μM): 87%
- Activity of Kv1.1 with peptide, expressed as a percentage of the reference compound (Kv1.1; peptide at 0.2 μM): 106%
- Activity of Kv1.1 with peptide (percentage of the reference compound) (Kv1.1; peptide at 20 μM): 91%
- Activity of Kv1.2 with peptide, expressed as a percentage of the reference compound (Kv1.2; peptide at 0.2 μM): 90%
- Activity of Kv1.2 with peptide (percentage of the reference compound) (Kv1.2; peptide at 20 μM): 45%
- Activity of Kir2.1 with peptide, expressed as a percentage of the reference compound (Kir2.1; peptide at 0.2 μM): 109%
- Activity of Kir2.1 with peptide (percentage of the reference compound) (Kir2.1; peptide at 20 μM): 90%
- Activity of Nav1.7 with peptide, expressed as a percentage of the reference compound (Nav1.7; [3]): 95%
- Activity of Nav1.7 with peptide, expressed as a percentage of the reference compound (Nav1.7; [4]): 93%
- Activity of Nav1.7 with peptide (percentage of the reference compound) (Nav1.7; [3]): 96%
- Activity of Nav1.7 with peptide (percentage of the reference compound) (Nav1.7; [4]): 104%
- Activity of 5HT3a with peptide (percentage of the reference compound) (5HT3a): 76%
- Activity of 5HT3a with peptide, expressed as a percentage of the reference compound (5HT3a): 103%
- Activity of TRPA1 with peptide, expressed as a percentage of the reference compound (TRPA1; peptide at 0.2 μM): 135%
- Activity of TRPA1 with peptide (percentage of the reference compound) (TRPA1; peptide at 20 μM): 119%
- Activity of GABA with peptide, expressed as a percentage of the reference compound (GABA; peptide at 0.2 μM): 121%
- Activity of GABA with peptide (percentage of the reference compound) (GABA; peptide at 20 μM): 108%
- Activity of TRPV1 with peptide, expressed as a percentage of the reference compound (TRPV1; peptide at 0.2 μM): 110%
- Activity of TRPV1 with peptide (percentage of the reference compound) (TRPV1; peptide at 20 μM): 98%
